Results reported in US20260209316A1 (US Dept. of Health and Human Services, published 2026).
Read-outs that look alike come from different tables or passages of the source.

T1: SUDV GP on pseudotyped lentiviral vector (Sudan virus (SUDV), UniProt Q7T9D9 33-676)
T1 sequence: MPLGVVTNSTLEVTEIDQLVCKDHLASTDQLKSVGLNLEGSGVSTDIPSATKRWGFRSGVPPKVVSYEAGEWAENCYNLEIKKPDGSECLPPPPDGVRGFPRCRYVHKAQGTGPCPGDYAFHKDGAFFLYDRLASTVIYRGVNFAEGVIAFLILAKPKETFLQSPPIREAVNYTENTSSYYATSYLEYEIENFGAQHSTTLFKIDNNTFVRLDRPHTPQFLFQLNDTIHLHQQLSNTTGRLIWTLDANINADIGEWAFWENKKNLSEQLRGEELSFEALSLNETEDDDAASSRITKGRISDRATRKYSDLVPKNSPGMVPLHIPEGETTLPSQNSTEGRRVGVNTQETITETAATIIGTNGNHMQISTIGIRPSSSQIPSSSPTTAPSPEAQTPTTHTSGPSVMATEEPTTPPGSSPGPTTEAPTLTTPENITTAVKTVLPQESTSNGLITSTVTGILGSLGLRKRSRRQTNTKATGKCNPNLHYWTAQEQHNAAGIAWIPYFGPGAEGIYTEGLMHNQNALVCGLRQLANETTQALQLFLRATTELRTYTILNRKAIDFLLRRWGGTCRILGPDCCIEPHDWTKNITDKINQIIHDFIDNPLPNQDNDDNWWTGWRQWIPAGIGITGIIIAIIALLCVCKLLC

T2: full-length Sudan GP (GPFL) (Sudan virus (SUDV), UniProt Q7T9D9 33-650)
T2 construct: also called Sudan GPFL; GP(S)FL
T2 sequence: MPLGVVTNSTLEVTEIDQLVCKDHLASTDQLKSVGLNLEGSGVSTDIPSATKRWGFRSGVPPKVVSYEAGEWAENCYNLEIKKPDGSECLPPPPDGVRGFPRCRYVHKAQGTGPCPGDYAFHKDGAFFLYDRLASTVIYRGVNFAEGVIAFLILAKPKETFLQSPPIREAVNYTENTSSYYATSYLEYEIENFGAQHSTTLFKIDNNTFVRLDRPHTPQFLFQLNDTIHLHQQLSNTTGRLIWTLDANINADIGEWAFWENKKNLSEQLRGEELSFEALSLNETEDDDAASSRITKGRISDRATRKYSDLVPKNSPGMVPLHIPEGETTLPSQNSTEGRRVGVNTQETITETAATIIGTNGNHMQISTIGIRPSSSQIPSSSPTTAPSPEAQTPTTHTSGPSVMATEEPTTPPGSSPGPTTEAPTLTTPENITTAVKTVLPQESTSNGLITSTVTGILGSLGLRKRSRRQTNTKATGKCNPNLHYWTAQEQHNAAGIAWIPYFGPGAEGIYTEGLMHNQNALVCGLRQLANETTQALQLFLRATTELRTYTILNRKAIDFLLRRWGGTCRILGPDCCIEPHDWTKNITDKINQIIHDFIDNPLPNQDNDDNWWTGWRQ

T3: EBOV GP on pseudotyped lentiviral vector (Ebola (Zaire) virus (EBOV), UniProt Q05320 33-676)
T3 sequence: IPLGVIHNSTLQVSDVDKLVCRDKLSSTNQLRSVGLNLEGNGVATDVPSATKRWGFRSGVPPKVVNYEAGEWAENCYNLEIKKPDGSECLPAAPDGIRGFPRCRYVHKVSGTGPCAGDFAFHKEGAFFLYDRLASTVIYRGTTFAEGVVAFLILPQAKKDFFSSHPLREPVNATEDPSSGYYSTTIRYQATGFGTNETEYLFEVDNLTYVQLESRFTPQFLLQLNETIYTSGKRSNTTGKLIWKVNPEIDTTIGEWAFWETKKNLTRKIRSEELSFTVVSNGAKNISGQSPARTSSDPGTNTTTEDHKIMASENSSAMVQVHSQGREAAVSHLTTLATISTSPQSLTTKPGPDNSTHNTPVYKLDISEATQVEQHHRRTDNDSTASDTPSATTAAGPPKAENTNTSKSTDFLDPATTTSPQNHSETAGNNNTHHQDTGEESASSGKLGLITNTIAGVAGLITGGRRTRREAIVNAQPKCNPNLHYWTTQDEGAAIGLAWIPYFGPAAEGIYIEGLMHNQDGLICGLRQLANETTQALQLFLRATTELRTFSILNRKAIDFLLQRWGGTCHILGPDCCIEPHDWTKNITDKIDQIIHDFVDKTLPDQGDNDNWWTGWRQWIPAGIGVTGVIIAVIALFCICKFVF

T4: full-length Zaire GP (GPFL) (Ebola (Zaire) virus (EBOV), UniProt Q05320 33-632)
T4 construct: also called Zaire GPFL; GP(Z)FL
T4 sequence: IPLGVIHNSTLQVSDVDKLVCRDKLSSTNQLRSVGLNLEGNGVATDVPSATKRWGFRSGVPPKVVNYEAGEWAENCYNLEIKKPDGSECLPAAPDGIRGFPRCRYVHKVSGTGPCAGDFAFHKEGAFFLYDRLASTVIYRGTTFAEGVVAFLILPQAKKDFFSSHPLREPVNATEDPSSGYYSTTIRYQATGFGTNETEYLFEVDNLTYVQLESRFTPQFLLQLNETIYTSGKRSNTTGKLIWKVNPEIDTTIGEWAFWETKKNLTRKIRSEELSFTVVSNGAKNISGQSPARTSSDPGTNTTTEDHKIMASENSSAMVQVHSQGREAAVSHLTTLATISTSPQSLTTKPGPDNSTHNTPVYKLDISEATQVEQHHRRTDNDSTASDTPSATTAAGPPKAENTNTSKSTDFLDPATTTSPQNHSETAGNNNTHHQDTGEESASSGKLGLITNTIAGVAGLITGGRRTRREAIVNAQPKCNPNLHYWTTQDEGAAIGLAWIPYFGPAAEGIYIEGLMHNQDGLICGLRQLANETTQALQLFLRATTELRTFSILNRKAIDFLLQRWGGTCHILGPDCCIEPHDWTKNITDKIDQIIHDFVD

B1: antibody 291S (antibody, V domains shown)
VH: QVQLQESGPGLVKPSQTLSLTCTVSGGSFSSGFYWSWIRQRPGKGLEWVGYTYYSGSTYYNPSLQSRVTISVDTSKNQFSLNLSSVTAADTAVYHCARADYGGLFDYWGQGILVTVSS
VL: QSVLTQPSSLSASPGASASLTCTLRSGINVGTYRIFWYQQKPGSPPQFLLRYNSDSDKQQGSGVPSRFSGSKDASANAGILLISGLQSEDEADYYCMIWHTSAWVFGGGTKLTVL
B2: antibody 545S (antibody, V domains shown)
VH: QVQLQESGPGLVKPSQTLSLTCTVSGGSISRAGSYWSWIRQHPGKGLEWIGYISYSGSTYYNPSLESRVTMSLDTSKSQFSLKLSSVTAADTAVYYCAREDRSGFYGLDVWGQGTTVTVSS
VL: QSVLTQPSSLSASPGATASLTCTLRSGINVDTYRIYWYQQKPGSPPQYLLRYKSDSDKHQGSGVPSRFSGSKDASANAGILLISGLQSADEADYYCMIWHSGAWVFGGGTKLTVQG
notes: also called 545S mAb
B3: antibody mAb114 (antibody, V domains shown)
VH: EVQLVESGGGLIQPGGSLRLSCAASGFALRMYDMHWVRQTIDKRLEWVSAVGPSGDTYYADSVKGRFAVSRENAKNSLSLQMNSLTAGDTAIYYCVRSDRGVAGLFDSWGQGILVTVSS
VL: DIQMTQSPSSLSASVGDRITITCRASQAFDNYVAWYQQRPGKVPKLLISAASALHAGVPSRFSGSGSGTHFTLTISSLQPEDVATYYCQNYNSAPLTFGGGTKVEIK
B4: antibody 16F6 (antibody, V domains shown)
VH: EVQLVESGGGLVTPGGSLKLSCAASGFAFNYYDMFWVRQNTEKRLEWVAYINSGGGNTYYPDTVKGRFTISRDNAKKTLFLQMSSLRSEDTAMYYCARQLYGNSFFDYWGQGTSLTVSA
VL: DIVMTQSHKFMSTSVGDRVTITCKASQDVTTAVAWYQQKPGHSPKLLIYWASTRHTGVPDRFTGSGSGTDFTLTLNSVQAEDLALYYCQQHYSTPLTFGAGTKLELK
B5: antibody 380L (antibody, V domains shown)
VH: EVQLVESGGGLVQPGGSLTLSCAASGFTFGDYVMHWVRQVPGRGLEWLSAVSWSGYTTYSADSVKGRFTISRDNAKNSLYLQMSRLGTADTGLYYCVTLIGAIGIRDSFDAWGRGVLVTVSS
VL: QSVLTQPPSMSGAPGQRVTVSCTGSSSNIGAGNYVQWYQQLPGTAPKVLIYQTDKRPSGISDRFSGSKSGTSASLTISGLQSEDEADYYCQVYDSSLNGWVFGGGTRLTVL
notes: also called 380L mAb; mAb 380L
B6: antibody 316L (antibody, V domains shown)
VH: EERLVESGGGLVQPGGSLRLSCAASGFTFGDYAMHWVRQVPGKSLEWLSGISWSGYTTYSADSVKGRFTISRDNAKNSLYLQMNRLRPEDTGLYYCVTLIGAIGIKDSLDVWGRGVLVTVSS
VL: QSVLTQPPSVSGAPGQRVTVSCSGSSSNIGAGNYVQWYQQLPGTAPKVLIYQTEKRPSGTSDRFSGSKSDTSASLTINGLQSEDEADYYCQVYDSNLNGWVFGGGTRLTVLG
notes: also called 316L mAb; mAb 316L

Assays:
[1] = target: T1, SUDV GP on pseudotyped lentiviral vector; assay: cell-based or functional assay
[2] = target: T2, full-length Sudan GP (GPFL); assay: ELISA on coated GP
[3] = target: T3, EBOV GP on pseudotyped lentiviral vector; assay: cell-based or functional assay
[4] = target: T4, full-length Zaire GP (GPFL); assay: ELISA on coated GP
[5] = target: T3, EBOV GP on pseudotyped lentiviral vector; assay: cell-based or functional assay; remark: listed apart in the source
[6] = target: T4, full-length Zaire GP (GPFL); assay: ELISA on coated GP; remark: listed apart in the source
[7] = target: T1, SUDV GP on pseudotyped lentiviral vector; assay: cell-based or functional assay; remark: listed apart in the source
[8] = target: T2, full-length Sudan GP (GPFL); assay: ELISA on coated GP; remark: listed apart in the source
[9] = target: T1, SUDV GP on pseudotyped lentiviral vector; assay: cell-based or functional assay; remark: listed apart in the source
[10] = target: T2, full-length Sudan GP (GPFL); assay: ELISA on coated GP; remark: listed apart in the source

| Binder | IC50, microneutralization of GP-pseudotyped lentiviral vector on HEK293 cells [1] [mg/L] | EC50 [2] [mg/L] | EC50 [4] [mg/L] | IC50, microneutralization of GP-pseudotyped lentiviral vector on HEK293 cells [5] [mg/L] | EC50 [8] [mg/L] | IC50, microneutralization of GP-pseudotyped lentiviral vector on HEK293 cells [9] [mg/L] | further results |
| --- | --- | --- | --- | --- | --- | --- | --- |
| B1 | 2.89 | 0.0565 | – | – | – | – | – |
| B2 | 0.624 | 0.0338 | – | – | – | – | – |
| B3 | – | – | 0.0239 | 0.152 | – | – | IC50, microneutralization of GP-pseudotyped lentiviral vector on HEK293 cells [3]: 0.18 mg/L; EC50 [6]: 0.02 mg/L |
| B4 | – | – | – | – | 0.068 | 0.068 | IC50, microneutralization of GP-pseudotyped lentiviral vector on HEK293 cells [7]: 0.04 mg/L; EC50 [10]: 0.16 mg/L |
| B5 | – | – | 0.0398 | 0.756 | 0.0195 | 0.395 | – |
| B6 | – | – | 0.0441 | 1.77 | 0.0175 | 0.284 | – |
